Assay results as given in the DeepSol protein solubility set.

assay: soluble on expression in E. coli; label from the status in PepcDB or PDB records

Q: With “MSAASTTSTPAAAAVAPQQPESLYRVVQTLGEGAFGEVLLIVNTKNPEVAAAMKKINIANKSKDFIDNIRKEYLLQKRVSAVGHDNVIRMIGMRNDPQFYYLFLEYADGGELFDKIEPDCGMSPVFAQFYFKQLICGLKFIHDNDVVHRDIKPENLLLTGTHVLKISDFGMATLYRNKGEERLLDLSCGTIPYAAPELCAGKKYRGPPVDVWSSGIVLIAMLTGELPWDRASDASQSYMGWISNTSLDERPWKKIDVRALCMLRKIVTDKTDKRATIEQIQADPWYQHNFGQVETPNGRPLKRARNNDENITCTQQAECSAKRRHLETPNEKSTLAERQNASFSQPTKTEDLLLTQHIDMSQTNSVRKKPSEIGGFLAKISNFSVNLLQRMVCRMTRFCVVTDIRSTYQKVARASEHAGFGVRETDDYRLLVTWREVSMMVSLYTMGDIPDKPRVMVDFRRSRGDGIQFKKMFMDVRNRMHEWICTDGNNWLANLGYVPRNPQIVNGGGVNVEHSASSINVDV” as the sequence, how does the “soluble on expression in E. coli” value read?
A: not soluble

Q: For “MSAATYRKLTSANLLDPVRCRLLISRNRCRVTGVKVPNPLKKVSNFFWRYRAPQAAPGHANPAYFPEADNFED”, which “soluble on expression in E. coli” value is on record?
A: not soluble

Q: With “MSAETYVMEIDGGPGDLHCMKCLKICNYLKDSYCCKKTKNMTLPQKKAESAFLMICLQRNTIELMVTALLANKKIIDSKGNCAFCRNKKQHEEEKWCAGRTKLQLFLHRIDKDELKVEEYLEKYLEIKTRNRMEQLDIVQARIVREMKAVAIAQGKSEEEVEHILAKQGRKARRMQRSEYKHAEEDNKGVRQRLAAKLVAKKSEIIERFCLAQRTVFVKADCPNVYGRTTTHISYLLE” as the sequence, how does the “soluble on expression in E. coli” value read?
A: not soluble

Q: Which “soluble on expression in E. coli” value does the source give for “MSAGQRKEQKLIPVERRQIILEMVAEKGIVSIAELTDRINVSHMTIRRDLQKLEQQGAVVLVSGGVQSPGRVAHEPSHQVKTALAMTQKAAIGKLAASLVLPGSCIYLDAGTTTLAIAQHLIHMESLTVVTNDFVIANYLLDNSNCTIIHTGGAVCRENRSCVGEAAATMLCSLMIDQAFISASSWSVRGISTPAEDKVTVKRAIASASRQRVLVCDATKYGQVATWLALPLSEFDQIITDDGLPESASRALAKQDLSLLVAKNELEHHHHHH” here?
A: soluble

Q: With “MSAKREFSHITLASTPFKKRIDQNSLKTDSDIEKDTNIAHKCAERFNYNTNLHRKVTLSDRFELAALGYEMKAKPRTIIEKHNDCDEFHFIYRKEKKNDYGTGSPLSAGLSLSNPLPAGRGFLSPAIQNTSNQFTFSGSPRITPQKHTPVSANHKPARSIFDDIPSNIA” as the sequence, how does the “soluble on expression in E. coli” value read?
A: not soluble

Q: With “MSALEETQSLCKQVDDICNNGMESVEQCNKLLDQLSKIPMSIEIIQKTNIGIKVNMMRKKVTDDAVAKRAKNIIKDWKNVVDGKSKSQDDGGAPPAKKHRKESVEEAKPEKKKIEAPYKRPEPSSRPEIVAQFASASFPPKHLENDETRLKSAQLLLSALRFGDMPQGTLDPEELAVQIEEKLYSVHRDTNKSYSAAVRSRIFNLRDKKNLALRENVLTGVVRAEKFATMTSEEMASAEIREMRDKFTKEAILEHQMSVQQGTPSDMFKCGKCGKKNCTYTQLQTRSSDEPMTTFVFCLECGNRWKFC” as the sequence, how does the “soluble on expression in E. coli” value read?
A: soluble

Q: Which “soluble on expression in E. coli” value does the source give for “MSAPDLFVAHFREAVPYIRQMRGKTLVAGIDDRLLEGDTLNKLAADIGLLSQLGIRLVLIHGARHFLDRHAAAQGRTPHYCRGLRVTDETSLEQAQQFAGTVRSRFEAALCGSVSGFARAPSVPLVSGNFLTARPIGVIDGTDMEYAGVIRKTDTAALRFQLDAGNIVWLPPLGHSYSGKTFYLDMLQTAASAAVSLQAEKLVYLTLSDGISRPDGTLAETLSAQEAQSLAEHAGGETRRLISSAVAALEGGVHRVQILNGAADGSLLQELFTRNGIGTSIAKEAFVSIRQAHSGDIPHIAALIRPLEEQGILLHRSREYLENHISEFSILEHDGNLYGCAALKTFAEADCGEIACLAVSPQAQDGGYGERLLAHIIDKARGIGISRLFALSTNTGEWFAERGFQTASEDELPETRRKDYRSNGRNSHILVRRLHR” here?
A: not soluble

Q: With “MSAPINKVLIADDIEQECVDILKQNGIEVTVKTKQTKDELLVTLPQHDAVIVRSATKITAELLAASAGKLKLVGRAGTGVDNIDVPAASANKILVMNTPQANSRSAAELTCTLILSLSRHVPQAAASMKAGKWARKDFMGEEVYGRTLAVLGLGRIGSEVAVRLQAFGMKVIGFDPMVTKEQAEAKNIELLSLEQIWPQADYITVHVPLIKQTENLINKETLAKCKKGVRIINVARGGIVNEVDLVESLNAGHAKGAAFDVFEQEPPTFRELIDHPLVIATPHLGASTIDAQLRVASEIADNIVQYNKGTMLGVLNAREVLN” as the sequence, how does the “soluble on expression in E. coli” value read?
A: not soluble

Q: For “MSAPTMRSTSILTEHLGYPPISLVDDIINAVNEIMYKCTAAMEKYLLSKSKIGEEDYGEEIKSGVAKLESLLENSVDKNFDKLELYVLRNVLRIPEEYLDANVFRLENQKDLVIVDENELKKSEEKLREKVNDVELAFKKNEMLLKRVTKVKRLLFTIRGFKQKLNELLKCKDDVQLQKILESLKPIDDTMTLLTDSLRKLYVDSESTSSTEEVEALLQRLKTNGKQNNKDFRTRYIDIRTNNVLRKLGLLGDKEDEKQSAKPDARTQAGDIVSIDIEEPQLDLLDDVL”, which “soluble on expression in E. coli” value is on record?
A: soluble

Q: With “MSAQKPGLHPRNRHQHRYDLAALCQTTPELTSFLIRTPAGEQSVDFANPQAVKALNKALLAHFYAVTHWDIPPGFLCPPVPGRADYIHHLADLLGETTGSIPAQATILDVGVGANCIYPLIGVHEYGWRFTGSEVSDAAMSSAQAIIQANTGLSRAIRLRRQKDPAAIFTGIIHKNEFYDATLCNPPFHDSAAAARAGSERKRRNLGQNKDDALNFGGQQQELWCEGGEVAFIKKMIAESQTFRRQVLWFTTLVSRGENLPPLYRALTEAGAVKVVKKEMAQGQKQSRFIAWTFMDDDQRRRFITRKRLEHHHHHH” as the sequence, how does the “soluble on expression in E. coli” value read?
A: soluble

Q: With “MSASIRDAGVADLPGILAIYNDAVGNTTAIWNETPVDLANRQAWFDARARQGYPILVASDAAGEVLGYASYGDWRPFEGFRGTVEHSVYVRDDQRGKGLGVQLLQALIERARAQGLHVMVAAIESGNAASIGLHRRLGFEISGQMPQVGQKFGRWLDLTFMQLNLDPTRSAP” as the sequence, how does the “soluble on expression in E. coli” value read?
A: soluble

Q: With “MSASLRQSELTIRACILYEALGKNPIQLSYYNFCTRVGNGVMGFSDFEFWYDRFSNGNHDLDYDRSVNQVPKSLPEMPKSEKTEISEIGTQVDIVELLNLMKVSQSVAQKRKVVLDSLVVQFYEGESCSRLIFNDRYIIKYEKKDQGCTVSYSDNRASSDSRKKEINVTDEDYVELCIKDLKLLMENRMVHLKTFRFAIIAVATKEFREKCMKRVEEALKTAKSLTSRTVETTGGYLLELAQLMAIFPAKNVEEIRFTGDGTIGSEQLVSLEQWKNARKFDGMRDLNVPIEHFLHFETFIVYLSVFTEDDAVKLRDMIDRSAHFCYARLHFKSMNIRTLMGVFDVYNTEHNIVYQTPDQRYFNVRFYSNELQITKSAILNFQIE” as the sequence, how does the “soluble on expression in E. coli” value read?
A: not soluble

Q: For “MSAVGEFPGSLGAKVFRLNGGLPGAKVGKNTGTSVKFGESSTQALIRAAYRQVFGRDLYEGQRLSVAEIQLENGDISVREFIKRLAKSELFLKLYWAPHYVCKAIEYMHRRLLGRPTYGRQEMNQYFDIASKQGFYAVVEAMIDSKEYSDAFGEDTVPYERYLEHHHHHH”, which “soluble on expression in E. coli” value is on record?
A: soluble

Q: With “MSCGSNRGNEMKDKYDVLVIGAGPAGSIAAKTAAEKGLDVLLIEKRQEIGDPVRCAEGVNKECLKKHVEIDKRWICADLKGSCIFSPDGTKIEMAEEISGGEVGYVLERKVFDRALAEHAATAGAEVRVKTRATGLIIEDDFVKGARLMHLGKEYEVRASIVIGADGVESKVGRWAGIDTALKPVDVETCAQYLIAGADINQEYCEFYIGNEMAPGGYVWVFPKGGGKANVGIGILGSKMGKFKPRPVDYLNDFVQKKFPDARIVEMVFGGVPVSGSIEKTSVNGLMLVGDAARQSDPITGGGILNAMDAGKLAGEAAYEAISAGDVSVVKLEEVYEKKWRDTVGHDIDMSLIVKNCFINLTDDDLDSLAHSLKDVKFERMSLLDLLQALFKANKKLLWDLRVLFKDAAKEVIKNKTLEHHHHHH” as the sequence, how does the “soluble on expression in E. coli” value read?
A: soluble

Q: With “MSDDGGFLSSQSSRELTEDDHEKLAKQTSISDFKRNKLEIDARKNWDKFYHRNKNNFFKDRNWSAEDLKMMCPDIDFEKEISYLEAGCGVGNMLFPLVAEIPNLKLFAFDFSDNAVKLLEERAKELELSVATSVVDLSIPSVSSPFEEQVDLATLIFVLSAIHPEKHQISAENVRKMIKIGGSVVVRDYGINDHAMIRFGREARISDRFYVRQDGTRAYYFDLNELSEVFEKSGFRCVRKEYLHRMTVNHQKGLKAPRIFVQARFIRES” as the sequence, how does the “soluble on expression in E. coli” value read?
A: not soluble

Q: For “MSDFVPETEENEEESQKIDEIHEIPAQAIIIDQSFSRRFLNNKWYGKYGEDGDLLEHIDEDWEPVGLDEVEFLSQLWFEQEDQEKKAHRHYDWDEEKKEWVPKAKQEEVNEDFIAEYQANYGVQYDDIYKKMDEELQEKAAKAQKEDEEKKEKKRKKKVGLGAGEDAKEGWLDLGDKVHAVYVSNLPEDITDEEFQKFMSKCGVIQPDIRTNKPKCKLYREENGKLKGDGRCCYIKKESVELACNILDGANLNGREVKVEEARFEMKGDFDPARKRRKLTAAQKKRYMEQQNKIFEWTPDKPRNYRPKSDCTVIVKNLFTQEMMNKNAALMLDLKEEMTQSCQKYGIVKKVVVYANHPDGVVSVTFPTTEESDMAVKYLHGRVVDGRKLTAELWDGRTKFKVEETEEDEEKRRKEYEKYIEGGSSETKEESDDDDDDEAEDN”, which “soluble on expression in E. coli” value is on record?
A: not soluble

Q: For “MSDGETAVIQSLAPGPIDGVSYPLKMVYCGQCSMPPEYCDYSGQTDVCRAWATQNAPELLEGLEISDEPAADGDEKKKQKRGGKGSKTGAAAAQAAASGGKKKGGGPQKVTLQREPRGKKSVTVIKGLATFDIDLKVASKLFAQKFACGSSVTGADEIVIQGDVKDDLLDLIPEKWKQVTDEQIDDLGDKKR”, which “soluble on expression in E. coli” value is on record?
A: soluble

Q: For “MSDGSDDDTNNDGNYCKNVSYNFLIQRLAEVSNRKCLLLPKKKNRVDYISIMQTAEFYPELVNSSPPLEPGFTSCEVFVVDKKVDKDTLHLDNFSPYHIGATRRTLERQHSYFYRVNESGNFVPAIKTNGTHILRILVSILGSCPALNRKIYRMVKIESQNKNCLPSLIVYTFEPGHEIPKPNAPAILRRQTSDEIQKILNIPGTSFSQAHSEAVLNRFYDDLPIRDEASDQKRARYSIESTSSTNNQLNEINSFVVPKFEGRQESEQLFRDVKVEQFEESAEISINNRALSPHIQPSKTSVVNRPNQQNRKFQNYDMFSAGVISTATVPAPMFHPHITPIADLKDDDGYDPEELTQRNKLASLYRLVDLFRWSQGIYNHITVRVSTDPDEILINAFGQLYSEVSASSLIKVDLDGTVIDGGSTNFGVNQAGYVLHSAIHNGRPEVKCVVHLHHPSVVAVSAQKCGLLPISQESMIVGDVGYHEYRGILIDEAERALLVRDLGDRNVMILRNHGFVVCGESIEHALSLTYHLIIACETQIRTVPGGNTDNVHFPAQSAIKQVYKVASQGGGGVNRQNGHVNSMQWKKGELEWQAYMRQLDAQGYVTGNVPN”, which “soluble on expression in E. coli” value is on record?
A: not soluble

Q: Which “soluble on expression in E. coli” value does the source give for “MSDHAEEHASINTKKTVENITDVRKTAKTSIDWTKPSGGEYPDIKQKHVWIDVNVKEQKAYIKEGSNTIYTMMISSGLDQTKDDATPKGTFYVEPERGEWFFSEGYQEGAEYWVSWKNHGEFLFHSVPMTKDQKVIKTEAEKLGTKVSHGCIRLTIPDAKWVYENIPEHTKVVISLEHHHHHH” here?
A: not soluble

Q: For “MSDKRETRIKSVQNLAPVYNVRDDAKTRRRVALTQMLGRAYNQFNAGDDAAAEKLLEEVLRQDRSSIDAWTLRATIYSKRGDVVHSGEYYRKAAQLAPQRGDVLNNYGAWLCANGYPAEALVWFERAMADPAYGEQPGTLANSGGCALQAGQRDRADHDLRRALELDPSNAYALESMARNEYDKHRYFEARAFSERRLATTVPATASVLKLAIQIEQELGDRAAASRYQQRLVKEFPETVAVEPRG”, which “soluble on expression in E. coli” value is on record?
A: soluble

Q: For “MSDPLTAQEQHKRRQAVRELMPRTPFIGGLGIVFERYEPDDVVIRLPFRTDLTNDGTYFHGGVIASVMDTAGAAAAWSNHDFDRGTRAATVAMSIQYTGAAKRCDLLCHARTARRRKELTFTEITATDPDGNIVAHAVQTYRIV”, which “soluble on expression in E. coli” value is on record?
A: not soluble
